Patent publication US7341730B1, “Inhibitors of angiogenesis and tumor growth” (University of Southern California, priority 1998, dated 2008)
Entries after “also recorded” stand apart in the source; their conditions may differ.

Tests used:
T-cell lymphoma (EL-4) = test: Syngeneic tumor growth in C57BL/6 mice, T-cell lymphoma (EL-4); assay type: in vivo; conditions: 2.5 mg/kg from the day following implantation, two weeks
Procedure: (§1) FIG. 4: Inhibition of tumor growth in mice. C57BL/6 mice were implanted with Lewis lung carcinoma, melanoma (B 16), and T-cell lymphoma (EL4). KS Y-1 was implanted in nude mice as a positive control. One day after implantation 2.5 mg/kg of Saposin B was injected into the mice subcutaneously.
(§2) To determine whether this anti-tumor effect was reproducible with different classes of syngeneic-tumors, C57BL/6 mice were implanted with Lewis lung carcinoma, melanoma (B16), and T-cell lymphoma (EL-4) cell lines. KS Y-1 was implanted into nude mice for a positive control. The day following tumor implantation, 2.5 mg/kg of Saposin B was administered intraperitoneally. Tumor size was measured three times a week for two weeks at which time the mice were sacrificed for analysis. […] See, FIG. 4

KS cell lines [1] = test: Growth inhibition of KS cell lines by recombinant proteins; assay type: cell-based; conditions: recombinant or naturally occurring protein
Procedure: (§3) Typically, in an anti-proliferation assay, the suppression of growth in the presence of the compound to be tested is measured. For example, the above cells are incubated with the polypeptides of this invention for a suitable time and the decrease in the growth rate relative to a negative control, i.e., cells of the same cell line which have been incubated in media alone, is measured. Growth of the cell culture can be measured by any method acceptable to one of skill, including but not limited to, 3H-thymidine uptake, cell counting and tetrazolium dye uptake.
(§4) By SDS-PAGE, the bacterial product was smaller than the eukaryotic protein. Because prokaryotically expressed proteins are not glycosylated, the difference in molecular weights probably represents the presence of carbohydrate in the eukaryotic protein. Recombinant proteins were then tested in KS, endothelial and control cell lines. Activity was found only in KS cell lines and endothelial cells.

Lewis lung carcinoma = test: Syngeneic tumor growth in C57BL/6 mice, Lewis lung carcinoma; assay type: in vivo; conditions: 2.5 mg/kg from the day following implantation, two weeks
Procedure: as §1, §2

[2] = tested on: endothelial cells (HUVEC); test: Growth inhibition of endothelial cells; assay type: cell-based
Procedure: as §3, §4

melanoma (B16) = test: Syngeneic tumor growth in C57BL/6 mice, melanoma (B16); assay type: in vivo; conditions: 2.5 mg/kg from the day following implantation, two weeks
Procedure: as §1, §2

[3] = tested on: angiogenesis induced by VEGF or bFGF in chicken allantoic membrane (CAM); test: Chicken allantoic membrane (CAM) angiogenesis assay; assay type: in vivo; conditions: 48 hours
Procedure: In order to test anti-angiogenic activity, chicken allantoic membrane (CAM) assays were performed with recombinant Saposin B. Ten day old fertilized chicken eggs were prepared for assay by creating a window in the egg shell, and placing filter paper discs saturated with VEGF or bFGF as positive controls, test compounds, or carrier buffer (negative controls) on the allantoic membrane. The membranes were harvested after 48 hours and analyzed using an Olympus stereomicroscope. The number of branching blood vessels that infiltrated under the discs were counted and photographed. Eight CAMs were studied for test group, and the experiments were repeated at least twice.

[4] = tested on: CD34+/Flk-1+ cells from cord blood; test: Growth of CD34+/Flk-1+ progenitors on fibronectin coated dishes; assay type: cell-based, human; conditions: 50 ng/mL
Description: A bone marrow derived human CD34+/Flk-1+ progenitor cell can be mobilized into the blood stream in response to tumor induced signals such as VEGF and cytokine production. These cells can target to sites of angiogenesis where they mature into activated endothelial cells and thus contribute to the generation of new blood vessels at the tumor site. By blocking the production of these cells or by targeting these cells (i.e., the CD34+/Flk-1+ progenitors and the activated endothelial cell they can become), the angiogenesis/vasculogenesis required for tumor growth can be reduced or halted. […] The adherent cells take on a spindle-shaped morphology characteristic of the activated vascular endothelial cells typical of the angiogenic process. These cells express endothelial-specific markers including factor VIII, ulex europaeus agglutinin-1 (UEA-1), endothelial constitutive nitric oxide synthase (ecNOS), and E selectin. Further, when these cells (peripheral blood Flk+ progenitors) are infused into mice, they incorporate into newly formed blood vessels at site of injury. These observation identify CD34+/Flk-1+ bone marrow derived progenitors as a putative precursor to vascular endothelial cells. Preventing these cells from colonizing at distal sites of angiogenesis in tumors has enormous implication for the treatment of tumors. […]

[5] = tested on: CD34+ cord blood derived cells; test: Viability of CD34+ cord blood derived cells; assay type: cell-based, human
Description: However in the presence of Saposin B, CD34^+/Flk-1^+ progenitor growth was inhibited.
Saposin B was found not to be toxic to most CD34^+ cord blood derived cells, since the difference in viability of Saposin B treated CD34^+ cells was only around 20% when compared to control cells. Thus Saposin B not only targets fully differentiated and activated endothelial cells, but also a circulating progenitor, previously shown to target angiogenic sites.

[6] = tested on: Human bone marrow cells and peripheral blood mononuclear cells; test: Stem cell clonogenic assays in methylcellulose; assay type: cell-based; conditions: VEGF 10 and 100 ng/mL
Procedure: Human bone marrow cells and peripheral blood mononuclear cells were harvested from a subject after the administration of high doses of cyclophosphamide and G-CSF. Stem cell clonogenic assays in methylcellulose were performed with IL-3, erythropoietin, and VEGF (10 ng/mL, and 100 ng/mL). VEGF was used to determine if there are progenitor cells with self replication capacity but without adherence to extracellular matrix such as fibronectin. It was also desirable to determine if Saposin B was toxic to endothelial cell specific progenitors for hematopoietic (myeloid or erythroid) lineage cells.
These colonies contained mixture of cells indicating more than one cell lineage generated in response to VEGF. The colonies also contained spindle shaped cells which mark the presence of VEGF receptors.

KS cell lines [7] = test: KS cell migration in transwell plates; assay type: cell-based; conditions: chemotaxis induced by VEGF or bFGF
Procedure: The assays were done in double chamber wells separated by fibrinogen-coated membrane. Chemotaxis was induced by bFGF (25 ng/mL) in the lower chamber. Endothelial cells or KS cells (5×10^4/mL) were placed in the upper chamber in the presence and absence of test polypeptides. Taxol at 10 ng/mL was used as a known inhibitor of migration. Cell migration across the membrane was quantitated after an overnight incubation.
Angiogenesis is mediated by complex biochemical processes including degradation of the basement membrane under existing blood vessel endothelial cells, followed by proliferation and migration of endothelial cells, followed by formation of capillary loops, and recruitment of vascular smooth muscle cells to encase the newly formed vessels and provide stability. KS and endothelial cell migration in the presence of Saposin B was studied in transwell culture plates with 8 μm pore membranes (Costar, Cambridge, Mass.).
Briefly, wells were coated with fibronectin (25 μg/mL) overnight, and endothelial cells or KS cells were plated in the upper chamber with 100 μL of DMEM/0.4% FCS. 500 μL of DMEM/0.4% FCS was added to the lower chamber and incubated at 37° C. for one hour. The test polypeptides, at various concentrations, were added to the upper chamber, and chemotactic agents (VEGF or bFGF at 20 ng/mL) were added to the lower cell-culture chambers. The plates were incubated for 5 hr at 37° C. and the cells crossing the fibronectin-coated membrane were counted after wiping the cells off the membrane in the upper chamber with a cotton swab.
The cells that traversed the membrane were fixed with Diff-Quik stain according to the manufacturer's instruction (Dade Diagnostics Inc., Aguada, PR). The cells were counted under a microscope at 320× in four randomly selected fields. The experiments were done in duplicate and repeated at least three times.

KS-SLK or KS Y-1 tumors = test: KS tumor growth in nude mice; assay type: in vivo
Procedure: FIG. 6: Effect of pentapeptide DVCQD (SEQ ID NO:28) on the growth of established KS Y-1 tumors in mice. Mice were implanted with the tumor on day one. Treatment with the peptide was started on the following day at a dose of 50 mg/kg subcutaneously daily. […] The arrow marks initiation of daily subcutaneous dosing.
In order to determine the anti-angiogenic activity of the recombinant Saposin B, tumor cells were implanted in immuno-deficient mice and treated with either Saposin B or buffer alone.
Nude mice were injected with 2×10^6 KS-SLK or KS Y-1 cells subcutaneously in a total volume of 100 μL. After one week of tumor development, the mice were injected subcutaneously daily with either PBS or Saposin B at concentrations of 1, 10 and 20 mg/kg for a total protein concentration of […]. The tumor size was measured three times a week. The results represent the median of 4 mice in each group.
as §2
In further experiments, KS tumors were allowed to grow for five days before treatment with Saposin B (1 and 5 mg/kg daily at a distal site from the timer tumor). In control mice, tumors grew to a weight of 555+mg. […] Tumors excised at the conclusion of the experiments were also examined for apoptosis, blood vessel density, and mitotic index. […] Thus, contrary to the results in vitro, Saposin B has an inhibitory effect against […] tumors.

[8] = KS tumors grown five days before treatment, 1 and 5 mg/kg daily

B1: Saposin B: polypeptide fragment of Prosaposin, positions 190 to 269 (SEQ ID NO:2); tested as recombinant protein (protein, listed as Homo sapiens)
chain: GDVCQDCIQMVTDIQTAVRTNSTFVQALVEHVKEECDRLGPGMADICKNYISQYSEIAIQMMMHMQPKEICALVGFCDEVK
modifications: Saposin B
notes: tested as recombinant protein
T-cell lymphoma (EL-4)
  tumor growth: profound inhibition of tumor growth
KS cell lines [1]
  growth inhibition / activity against KS cell lines: dose dependent growth inhibition
Lewis lung carcinoma
  tumor growth: profound inhibition of tumor growth
[2]
  growth inhibition / activity against endothelial cells: dose dependent growth inhibition
Melanoma (B16)
  tumor growth: profound inhibition of tumor growth
[3]
  inhibition of angiogenesis (number of blood vessel branches) in CAMs: effectively blocked angiogenesis; also recorded: inhibited by Saposin B in a dose-dependent fashion
[4]
  CD34+/Flk-1+ progenitor growth: inhibited
[5]
  difference in viability of treated CD34+ cells compared to control cells: around 20%
[6]
  effect on colonies generated with VEGF: loss of spindle shaped cells
KS cell lines [7]
  inhibition of KS cell migration: compete inhibition of cell migration
KS-SLK or KS Y-1 tumors; KS Y-1 in nude mice, 2.5 mg/kg from the day following implantation, two weeks
  tumor growth: profound inhibition of tumor growth
KS-SLK or KS Y-1 tumors; [8]
  apoptosis in excised tumors: increase in apoptosis
  blood vessel density in excised tumors: decrease in blood vessel density
  weights of excised tumors relative to controls: approximately 23%
KS-SLK or KS Y-1 tumors; nude mice, KS-SLK or KS Y-1, subcutaneously daily after one week, 1, 10 and 20 mg/kg
  tumor growth: markedly retarded
